How the values were obtained:
[1] = target: human AmphiphysinII/Bin1 N-BAR domain (human); experiment: double-mixing stopped-flow N assay (fluorescence); unfolded in 4 M urea, refolding at 1 to 5 μM N-BAR in 0.66 M urea for 0.1 to 300 s, then unfolding in 4.5 M urea; λ2 from the amplitudes of the fast unfolding phase λ5; 15°C; step: monomers to dimeric intermediate I2
[2] = target: human AmphiphysinII/Bin1 N-BAR domain (human); experiment: stopped-flow refolding kinetics, single mixing (fluorescence); unfolded in 4 M urea, refolding by 11-fold dilution to 0.4 M urea, 0.1 to 5 μM N-BAR, 20 mM Na phosphate, 100 mM NaCl, pH 7.4, 15°C; step: two monomeric intermediates I to dimeric intermediate I2; λ2 fixed to the value from fluorescence anisotropy

- λ2, second-order rate constant of the dimerization step at 0.66 M urea, 1 μM N-BAR [1]: 260000 M⁻¹ s⁻¹
- λ2, second-order rate constant of the dimerization step at 0.66 M urea, 2 μM N-BAR [1]: 480000 M⁻¹ s⁻¹
- λ2, second-order rate constant of the dimerization step at 0.66 M urea, 5 μM N-BAR [1]: 430000 M⁻¹ s⁻¹
- λ2, second-order rate constant of the dimerization step at 0.4 M urea [2]: 620000 M⁻¹ s⁻¹
Substance: human AmphiphysinII/Bin1 N-BAR domain (domain or fragment)
